Laboratory results from patent US20210063414A1, “METHODS FOR PREVENTING AND/OR TREATING BONE LOSS CONDITIONS BY MODULATING IRISIN” (Dana-Farber Cancer Institute, Inc., priority 2018, published 2021).

Tests used:
[1] = target: T1, MLO-Y4 cell surface proteins (Mus musculus, UniProt Q9CY64); test: Crosslinking/co-immunoprecipitation/mass spectrometry (TMT quantitative proteomics) to identify irisin receptors; assay type: binding; details: co-precipitated protein Blvra (BIEA_MOUSE)
T1 construct: endogenous in cells; host or cells: MLO-Y4
T1 sequence (Q9CY64 3-295): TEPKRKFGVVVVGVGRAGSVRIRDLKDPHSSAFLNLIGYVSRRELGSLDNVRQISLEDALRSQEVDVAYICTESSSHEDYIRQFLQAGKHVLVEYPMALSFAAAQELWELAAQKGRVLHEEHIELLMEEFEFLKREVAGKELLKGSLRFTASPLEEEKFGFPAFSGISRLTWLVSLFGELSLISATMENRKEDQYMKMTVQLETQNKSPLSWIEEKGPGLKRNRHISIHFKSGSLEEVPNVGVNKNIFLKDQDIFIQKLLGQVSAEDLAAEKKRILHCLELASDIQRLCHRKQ
How it was run: (§1)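 Mouse MLO-Y4 cells were switched to serum-free FreeStyle medium for 4 h, chilled, then exposed to 10 nM His-tagged irisin (or adipsin as control) for 20 min. Cells were crosslinked with 1.5 mM DTSSP (30 min, ice), and bound proteins were pulled down on Ni-NTA and eluted with 250 mM imidazole. Eluates were separated by SDS-PAGE, trypsin-digested in gel, TMT 6-plex labelled and quantified by MS3-based LC-MS/MS on an Orbitrap Fusion Lumos.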

[2] = target: T2, MLO-Y4 cell surface proteins (Mus musculus, UniProt Q3U2P1); test: as above; assay type: binding; details: co-precipitated protein Sec24a (SC24A_MOUSE)
T2 construct: endogenous in cells; host or cells: MLO-Y4
T2 sequence (Q3U2P1 1-1090): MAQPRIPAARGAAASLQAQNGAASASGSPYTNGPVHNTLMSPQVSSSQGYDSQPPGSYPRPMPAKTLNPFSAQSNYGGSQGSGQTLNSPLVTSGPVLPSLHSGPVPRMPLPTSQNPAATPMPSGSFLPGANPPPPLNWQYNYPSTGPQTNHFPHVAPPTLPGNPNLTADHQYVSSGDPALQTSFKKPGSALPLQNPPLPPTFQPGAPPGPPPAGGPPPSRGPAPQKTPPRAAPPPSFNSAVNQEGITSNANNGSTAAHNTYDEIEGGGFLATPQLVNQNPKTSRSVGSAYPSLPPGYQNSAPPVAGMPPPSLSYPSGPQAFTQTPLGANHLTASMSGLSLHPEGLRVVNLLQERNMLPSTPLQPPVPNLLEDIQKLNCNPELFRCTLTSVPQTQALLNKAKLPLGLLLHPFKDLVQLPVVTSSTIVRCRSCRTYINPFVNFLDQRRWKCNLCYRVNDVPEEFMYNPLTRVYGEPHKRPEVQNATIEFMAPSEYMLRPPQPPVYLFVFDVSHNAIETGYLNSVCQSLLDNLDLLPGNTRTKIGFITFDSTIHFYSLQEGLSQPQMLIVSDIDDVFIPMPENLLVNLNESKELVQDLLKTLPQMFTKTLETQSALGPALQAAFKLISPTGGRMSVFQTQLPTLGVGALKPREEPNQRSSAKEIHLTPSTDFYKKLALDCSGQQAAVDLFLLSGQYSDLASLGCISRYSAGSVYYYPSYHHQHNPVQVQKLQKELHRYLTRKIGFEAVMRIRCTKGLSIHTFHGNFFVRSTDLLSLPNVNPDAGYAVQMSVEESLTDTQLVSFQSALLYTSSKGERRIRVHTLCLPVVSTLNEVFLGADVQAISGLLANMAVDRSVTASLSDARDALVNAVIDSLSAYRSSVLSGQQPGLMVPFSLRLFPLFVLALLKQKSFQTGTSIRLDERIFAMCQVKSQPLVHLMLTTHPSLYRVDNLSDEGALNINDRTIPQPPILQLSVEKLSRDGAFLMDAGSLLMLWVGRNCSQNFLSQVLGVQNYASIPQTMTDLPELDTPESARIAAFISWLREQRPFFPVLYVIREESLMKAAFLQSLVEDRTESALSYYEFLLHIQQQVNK
How it was run: as §1

**Q.** Which results are given for adipsin?
**A.** TMT signal-to-noise ratio [1]: 302.865; TMT signal-to-noise ratio [2]: 118.999
